Consider two molecules from patent US20260265391A1 (BIOTHEUS, published 2026).

Numbering of substitutions follows the chain as printed.

Assay [1] addresses T1, human CD40 overexpressed on cells (human, UniProt P25942 21-277). Description: cell-based or functional assay.
The target in assay [2] is T1, human CD40 overexpressed on cells. In words: cell-based or functional assay. The source holds these as a separate data set.
The target is the same in assay [3]. In words: cell-based or functional assay. This is another data set of the same source.
Assay [4] has the same target. Description: flow cytometry on CHO-S cells overexpressing human CD40. How it is done: (§1) Specifically, by transfecting the pCHO1.0 vector (Invitrogen) with the human/cynomolgus CD40 cDNA cloned into the MCS and followed by applying pressure selection, CHO-S cells overexpressing human/cynomolgus CD40 were generated. The expanded CD40 overexpressing cells were adjusted to the appropriate cell density and plated on 96-well flow plate. After centrifugation, the cells were incubated with a gradient-diluted sample at 4° C. for 30 minutes. and the cells were then washed twice with PBS, and followed by incubation with a fluorescent secondary antibody diluted to the appropriate concentration, at 4° C. for 30 min. Following two washes with PBS, cells were resuspended in PBS and fluorescent signals were detection on the CytoFlex flow cytometer to calculate the corresponding MFI.
In general terms: Flow cytometry measures light scatter and fluorescence of single cells or particles in a stream.

Assay [5] deals with T2, cynomolgus CD40 overexpressed on CHO-S cells (cynomolgus, UniProt G7PG38 21-278).
T2 construct: whole, on cells; also called cynomolgus CD40 expressing CHO cells
Description: flow cytometry on CHO-S cells overexpressing cynomolgus CD40. How it is done: as §1

In assay [6] the target is T3, human CD40-Fc protein (human, UniProt P25942 21-193).
T3 construct: also called human CD40-Fc fusion protein; CD40-Fc antigen; not shown: Fc part
In words: BLI (ForteBio), IgG on AHQ sensor, 100 nM CD40-Fc in solution, bivalent, 1:1 model. How it is done:
(§2) The antibody-loaded sensor was further incubated in a high concentration of irrelevant intact antibody solution for 10 minutes to saturate and block the Fc binding sites on the AHQ sensor. The blocked sensor was then incubated with 100 nM CD40-Fc antigen until a plateau was reached, and then the sensor was transferred to the analysis buffer for at least 2 minutes for dissociation rate measurement. Kinetic analysis was performed using a 1:1 binding model.

For assay [7], the target named is T4, cynomolgus CD40-Fc protein (cynomolgus, UniProt G7PG38 21-193).
T4 construct: not shown: Fc part
The assay is described as above. How it is done:
as §2

T1 sequence (P25942 21-277 limits assumed): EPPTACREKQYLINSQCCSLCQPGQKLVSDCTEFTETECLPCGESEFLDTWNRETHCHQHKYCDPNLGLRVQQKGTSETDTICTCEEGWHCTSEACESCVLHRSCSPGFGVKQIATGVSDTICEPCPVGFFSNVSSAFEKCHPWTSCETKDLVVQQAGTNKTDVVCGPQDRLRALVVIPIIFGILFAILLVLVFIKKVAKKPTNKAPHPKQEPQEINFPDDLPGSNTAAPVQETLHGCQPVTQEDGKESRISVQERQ
T3 sequence (P25942 21-193 limits assumed): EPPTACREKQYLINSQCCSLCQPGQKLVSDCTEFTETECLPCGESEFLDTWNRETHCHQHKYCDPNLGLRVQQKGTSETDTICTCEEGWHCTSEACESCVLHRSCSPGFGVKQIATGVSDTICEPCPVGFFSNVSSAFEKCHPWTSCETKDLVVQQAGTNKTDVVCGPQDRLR

B1: CP870893-IgG2 (antibody, V domains shown)
VH: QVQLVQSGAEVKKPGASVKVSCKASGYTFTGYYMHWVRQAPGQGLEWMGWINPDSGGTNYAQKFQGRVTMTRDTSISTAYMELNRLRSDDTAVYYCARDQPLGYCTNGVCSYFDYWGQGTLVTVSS
VL: DIQMTQSPSSVSASVGDRVTITCRASQGIYSWLAWYQQKPGKAPNLLIYTASTLQSGVPSRFSGSGSGTDFTLTISSLQPEDFATYYCQQANIFPLTFGGGTKVEIKR
notes: Control antibody; also called CP870893-IgG2-wt; CP-870893-G2-WT
Turning to B1, in assay [1], the “Signal amplification with bead crosslinking (NFkB-Luc2P reporter, U2OS cells overexpressing human CD40)” value was found to be 14.8. For the same molecule, the “Signal amplification without bead crosslinking (NFkB-Luc2P reporter, U2OS cells overexpressing human CD40)” value in assay [1] was 4.7. Further, the “EC50 of the CD40-NFkB reporter gene assay (without beads cross-linking)” value in assay [2] was found to be 131 nM. The “EC50 of the CD40-NFkB reporter gene assay (with beads cross-linking)” value in assay [3] is 181 nM. Besides, the concentration for a half-maximal effect (EC50) in assay [4] was determined as 8 nM; in assay [5], 7.28 nM.

B2: ADI-47720 (antibody, human IgG1, kappa, V domains shown)
VH: EVQLVESGGGLVQPGRSLRLSCAASGFTFDDYAMHWVRQAPGKGLEWVSGISWSSGSIGYADSVKGRFTISRDNAKNSLYLQMNSLRAEDTAVYYCAKDPTATTGARGYFDLWGRGTLVTVSS
VL: B1 VL with Y30S, N45K, T50A, T53S, A91R, N92A, I93S, L96P
With B2, the “Signal amplification with bead crosslinking (NFkB-Luc2P reporter, U2OS cells overexpressing human CD40)” value in assay [1] came to 11.5. Moreover, in assay [1], the “Signal amplification without bead crosslinking (NFkB-Luc2P reporter, U2OS cells overexpressing human CD40)” value turned out to be 1.3. Moreover, the “EC50 of the CD40-NFkB reporter gene assay (without beads cross-linking)” value in assay [2] was around 1070 nM. Also, the “EC50 of the CD40-NFkB reporter gene assay (with beads cross-linking)” value in assay [3] was 304 nM. The EC50 came to 4.82 nM in assay [4] and 5.54 nM in assay [5]. Further, the Kd in assay [6] came out at 9.32 nM; in assay [7], 6.07 nM.

A word on the EC50: it is the midpoint of the concentration-response curve. Lower therefore signals an effect from little substance.
